Results from article PMC4992971, “ATP-Dependent C–F Bond Cleavage Allows the Complete Degradation of 4-Fluoroaromatics without Oxygen” (mBio, 2016).

Key:
[1] = substrate: CC(C)(COP(=O)(O)OP(=O)(O)OC[C@H]1O[C@@H](n2cnc3c(N)ncnc32)[C@H](O)[C@@H]1OP(=O)(O)O)[C@@H](O)C(=O)NCCC(=O)NCCSC(=O)c1ccc(F)cc1; assay: continuous spectrophotometric assay, dithionite-reduced methyl viologen as electron donor; type: biochemical, Thauera aromatica; conditions: ATP-dependent, 30°C, enriched enzyme
[2] = substrate: CC(C)(COP(=O)(O)OP(=O)(O)OC[C@H]1O[C@@H](n2cnc3c(N)ncnc32)[C@H](O)[C@@H]1OP(=O)(O)O)[C@@H](O)C(=O)NCCC(=O)NCCSC(=O)c1ccccc1; assay: as above; type: biochemical, Thauera aromatica; conditions: ATP-dependent, 30°C, enriched enzyme

B1: 4-F-BCR / class I benzoyl-CoA reductase (BCR, BcrABCD) (Thauera aromatica) (protein)
chain 1: SAKTNPEVIKESSMVKQKEMIAGNYDRLTGTKESGEKVVSTFVPGNLNELIMCFDMVNNLPETNAIQNGMRKQSGGMIMDAEKAGHSEDVCTYVKADIGMMGRGNIAPNGKPMPAPDMLLLSYTGCFTFMKWFELLRHEYKCPTVMLQIPYQGDGKITKNMRDFVVKQLKEEVIPMFEQVSGVKFDIDRLREYLKNSAKAEDDLVWVLESAKNRPSPIDAYFGGVYYIGPMFTAFRGTADAVEYYGLLRGEIEQRIREGKGPITPEGDMKEEKYRLVVEGPPNWTSFREFWKLFYDEGAVVVASSYTKVGGLYDQGFRHDPNDPLGTLADYCLGCYTNNNLPQRVELLEKYMNEYQADGLLINSIKSCNSFSAGQLLMMREIEKRTGKPAAFIETDLVDPRYFSHANVKNRLESYFQMVDQKRSGASLATA
chain 2: STADIIARCEALYEDLDFTAARQWKEADPSRKVIAYMPVYVPREIIHAAGMLPLGIMGGGDGLEVIHGDAFYQSYICRIPRSTIELGLSKRMDFVDGMLFPSICDVIRNLSGMWKLMFPGKYVRYFDVPQNYRDDVGGNYYTAELNELREGLEHLSGRKITDDALRASIKVYNENRKLVQDVYGLRSREPWKVPSADVYLLMRAGLVLPVEEHNQMLKDYLAAAVKVEAQKRDNCRVIINGSFCEQPPLNLIKSIELSGCYIVDDDYMIVHRFLRNEVSTAGDPMQNLSLAFLHESISTAAKYDDKEEDKGKYLLEQVRTNAAEGVIFAAPSFCDPALLERPMLADRCSENKVPYISFKYAENSGQMQPIREQAGTFADSIKLWS
notes: native enzyme enriched from 4-fluorobenzoate-grown cells, heterotetramer of four subunits BcrABCD, no tag; with Benzoyl-CoA reductase subunit A; Benzoyl-CoA reductase subunit D
- Km [1]: 97 µM
- Km [2]: 43 µM
